Results from publication doi:10.1101/594168, “Pat1 activates late steps in mRNA decay by multiple mechanisms” (bioRxiv, 2019).

Biological target: T1, Lsm1-7 complex (S. pombe, UniProt P87173 1-140; O94408 1-96; Q9Y7M4 1-93; O14352 1-121; O42978 1-80; Q9UUI1 1-75; …)
T1 construct: Lsm1, S. pombe; Lsm2, S. pombe; Lsm3, S. pombe; Lsm4, S. pombe; Lsm5, S. pombe; Lsm6, S. pombe; Lsm7, S. pombe; Heteroheptameric ring formed beforehand; the His6-TEV tag stood on the N-terminus of Lsm1 and was cleaved with TEV protease; also called Lsm1-7 ring; source: E. coli BL21(DE3)*, co-expressed from a polycistronic gene, purified (Ni-NTA, heparin, SEC); not shown: His6, N-terminal, …
Assay: pull-down; 10 µM MBP-tagged Pat1 construct and 10 µM Lsm1-7 mixed 15 min at room temperature, bound to amylose beads, washed four times, eluted with 10 mM maltose; SEC buffer (20 mM HEPES pH 7, 150 mM NaCl, 1 mM DTT); SDS-PAGE, Instant Blue stain
Settings: both partners purified

| binding result | Binder |
| --- | --- |
| binds | MBP-Pat1 317-754 (domain or fragment, S. pombe, UniProt O42958 317-754, looked up, also called PatMC lacking the LAR; source: E. coli BL21(DE3)*, purified (Ni-NTA, SEC); not shown: His6, N-terminal, kept; MBP, N-terminal, kept) MTRSDKSFIARIQISQLMSEDPESDDFYYRVYSIIRGRKPSEEEASHFIQTYLGPSNNRRRGRRSENPMQKLQQQLQRLVSSAKERPKATQLSLEGALGKIAVNTVRTPRQLLNVKRPTEPASSNSSLNNFSGFSTKKDVLHAIEKVYDLLLDFEQALRKASTLETTDQEQIDTWKTTLSEKLESIWKALYINESLEASSKTRPPFISIISHPKGMRLLPRLFPHLSKEQQISILKVVVYNFDSLDIVLRGTFDVNGELPLDVVSEMSSFTQFIIPPLLTIVNELDLETINNLFSQLLNRTNAVYLIQTKIGLSFLTLFISRAEILKQSGTVNQNEKEEWENTFNVMFNRVKGHFSTVFPPPNARAYADESYPWEFLAACATAASSEQHFTLVSETRDRVLDNIITSKRAPSEIAVVRISNVNLFLNAMGLDARQLSA |
| binds | MBP-Pat1 296-431 (domain or fragment, S. pombe, UniProt O42958 296-431, looked up, also called construct containing most of the middle domain of Pat1; source: E. coli BL21(DE3)*, purified (Ni-NTA, SEC); not shown: His6, N-terminal, kept; MBP, N-terminal, kept) LDEKRQKLERDHMLMAQCAGLMTRSDKSFIARIQISQLMSEDPESDDFYYRVYSIIRGRKPSEEEASHFIQTYLGPSNNRRRGRRSENPMQKLQQQLQRLVSSAKERPKATQLSLEGALGKIAVNTVRTPRQLLNV |

The remaining lines, values behind:

| Binder | binding result |
| --- | --- |
| MBP-PatMC (Pat1 residues 296-754) (domain or fragment, S. pombe, UniProt O42958 296-754, looked up, The MBP tag was not removed from constructs that contain the middle domain; also called SpPatMC; H6MBP-PatMC; source: E. coli BL21(DE3)*, purified (Ni-NTA, SEC); not shown: His6, N-terminal, kept; MBP, N-terminal, kept) LDEKRQKLERDHMLMAQCAGLMTRSDKSFIARIQISQLMSEDPESDDFYYRVYSIIRGRKPSEEEASHFIQTYLGPSNNRRRGRRSENPMQKLQQQLQRLVSSAKERPKATQLSLEGALGKIAVNTVRTPRQLLNVKRPTEPASSNSSLNNFSGFSTKKDVLHAIEKVYDLLLDFEQALRKASTLETTDQEQIDTWKTTLSEKLESIWKALYINESLEASSKTRPPFISIISHPKGMRLLPRLFPHLSKEQQISILKVVVYNFDSLDIVLRGTFDVNGELPLDVVSEMSSFTQFIIPPLLTIVNELDLETINNLFSQLLNRTNAVYLIQTKIGLSFLTLFISRAEILKQSGTVNQNEKEEWENTFNVMFNRVKGHFSTVFPPPNARAYADESYPWEFLAACATAASSEQHFTLVSETRDRVLDNIITSKRAPSEIAVVRISNVNLFLNAMGLDARQLSA | binds |
| MBP-PatMC L457A/E461K (domain or fragment, S. pombe, UniProt O42958 296-754, looked up, also called SpPatMC L457A/E461K; Mut; source: E. coli BL21(DE3)*, purified (Ni-NTA, SEC); not shown: His6, N-terminal, kept; MBP, N-terminal, kept) LDEKRQKLERDHMLMAQCAGLMTRSDKSFIARIQISQLMSEDPESDDFYYRVYSIIRGRKPSEEEASHFIQTYLGPSNNRRRGRRSENPMQKLQQQLQRLVSSAKERPKATQLSLEGALGKIAVNTVRTPRQLLNVKRPTEPASSNSSLNNFSGFSTKKDVAHAIKKVYDLLLDFEQALRKASTLETTDQEQIDTWKTTLSEKLESIWKALYINESLEASSKTRPPFISIISHPKGMRLLPRLFPHLSKEQQISILKVVVYNFDSLDIVLRGTFDVNGELPLDVVSEMSSFTQFIIPPLLTIVNELDLETINNLFSQLLNRTNAVYLIQTKIGLSFLTLFISRAEILKQSGTVNQNEKEEWENTFNVMFNRVKGHFSTVFPPPNARAYADESYPWEFLAACATAASSEQHFTLVSETRDRVLDNIITSKRAPSEIAVVRISNVNLFLNAMGLDARQLSA | binds |
